{
  "source": "FireProtDB (doi:10.1021/bi0015717)",
  "proteins": {"B1": {"name": "Lysozyme C wild type, P61626 (protein)", "chain": "MKALIVLGLVLLSVTVQGKVFERCELARTLKRLGMDGYRGISLANWMCLAKWESGYNTRATNYNAGDRSTDYGIFQINSRYWCNDGKTPGAVNACHLSCSALLQDNIADAVACAKRVVRDPQGIRAWVAWRNRCQNRDVRQYVQGCGV"}},
  "conditions": "Homo sapiens; pH 2.7; Thermal; DSC; glycine-HCl 0.05 M; reversible: yes; whole UniProt chain shown",
  "data": [
    {"protein": "B1", "values": [
      {"measurement": "Tm", "value": 64.9, "unit": "°C"},
      {"measurement": "heat capacity change of unfolding", "value": 1.58, "unit": "kcal/mol/K"},
      {"measurement": "unfolding enthalpy (calorimetric)", "value": 114, "unit": "kcal/mol"}
    ]}
  ]
}
